We go through one molecule from publication PMC7939478, “Development of a novel mammalian display system for selection of antibodies against membrane proteins” (The Journal of Biological Chemistry, 2020).

The assay deals with T1, human epithelial cell adhesion molecule (EpCAM) on CHO–EpCAM cells (Homo sapiens, UniProt P16422).
T1 construct: BC014785.1, expressed on the surface of CHO cells; source: CHO-X cells, lentiviral transduction, doxycycline-inducible, on the cell surface (clone SP1D12)
The assay can be described thus: flow cytometry on cells; self-labeling: CHO–EpCAM cells transduced with the HA-tagged scFv, cultured 3 days with or without doxycycline, stained with anti-HA-PE. The following applies: partners not purified.

T1 sequence (P16422 24-314): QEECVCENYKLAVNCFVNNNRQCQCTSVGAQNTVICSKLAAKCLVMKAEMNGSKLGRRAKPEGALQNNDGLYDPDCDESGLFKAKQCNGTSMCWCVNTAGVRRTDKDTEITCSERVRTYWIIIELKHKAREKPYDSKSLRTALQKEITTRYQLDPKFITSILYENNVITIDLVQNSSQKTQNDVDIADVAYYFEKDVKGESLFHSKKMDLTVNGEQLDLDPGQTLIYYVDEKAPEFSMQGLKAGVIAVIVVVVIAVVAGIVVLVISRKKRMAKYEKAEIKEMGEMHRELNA

B1: known anti-EpCAM scFv with a C-terminal HA tag (scFv, V domains shown)
VH: VQLLEQSGAELVRPGTSVKISCKASGYAFTNYWLGWVKQRPGHGLEWIGDIFPGSGNIHYNEKFKGKATLTADKSSSTAYMQLSSLTFEDSAVYFCARLRNWDEPMDYWGQGTTVTVSS
VL: ELVMTQSPSSLTVTAGEKVTMSCKSSQSLLNSGNQKNYLTWYQQKPGQPPKLLIYWASTRESGVPDRFTGSGSGTDFTLTISSVQAEDLAVYYCQNDYSYPLTFGAGTKLEIK
notes: Cloned into the pSF lentivector used for the scFv library; also called control anti-EpCAM scFv; source: CHO–EpCAM cells, lentiviral transduction, secreted by the same cells that carry the target; not shown: HA, C-terminal, kept
Turning to B1, the “fold increase in self-labeling signal (with against without doxycycline)” value is over 100 fold.
